The values below come from US20250025549A1 (NOVAVAX, published 2025).

This assay has as its target T1, human angiotensin-converting enzyme 2 precursor (hACE2), His-tagged (human, UniProt Q9BYF1 18-740).
T1 construct: also called His-tagged human ACE2; histidine-tagged hACE2
Description: bio-layer interferometry. For orientation: Biolayer interferometry detects binding as a change in optical thickness at a sensor tip.

T1 sequence (Q9BYF1 18-740 limits assumed): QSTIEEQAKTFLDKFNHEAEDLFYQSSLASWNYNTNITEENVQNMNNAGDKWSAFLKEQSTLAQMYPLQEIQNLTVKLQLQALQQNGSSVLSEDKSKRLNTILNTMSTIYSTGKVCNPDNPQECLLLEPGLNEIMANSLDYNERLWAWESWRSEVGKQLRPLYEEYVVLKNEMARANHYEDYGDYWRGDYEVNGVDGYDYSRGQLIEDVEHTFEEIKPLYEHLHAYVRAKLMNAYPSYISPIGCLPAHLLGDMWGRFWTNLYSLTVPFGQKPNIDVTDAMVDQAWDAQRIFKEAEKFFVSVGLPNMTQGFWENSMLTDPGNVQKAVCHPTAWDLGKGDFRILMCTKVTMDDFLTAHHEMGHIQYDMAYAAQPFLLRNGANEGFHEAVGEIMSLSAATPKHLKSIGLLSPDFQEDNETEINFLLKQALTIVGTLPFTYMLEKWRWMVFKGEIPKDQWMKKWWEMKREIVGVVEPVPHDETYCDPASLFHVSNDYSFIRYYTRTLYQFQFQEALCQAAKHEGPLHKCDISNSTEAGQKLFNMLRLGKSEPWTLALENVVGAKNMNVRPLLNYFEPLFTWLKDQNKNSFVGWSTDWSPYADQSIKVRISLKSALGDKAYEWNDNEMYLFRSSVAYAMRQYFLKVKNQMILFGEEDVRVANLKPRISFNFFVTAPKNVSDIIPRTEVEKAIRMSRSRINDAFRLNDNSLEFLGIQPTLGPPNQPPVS

B1: MERS S protein (other)
chain: YVDVGPDSVKSACIEVDIQQTFFDKTWPRPIDVSKADGIIYPQGRTYSNITITYQGLFPYQGDHGDMYVYSAGHATGTTPQKLFVANYSQDVKQFANGFVVRIGAAANSTGTVIISPSTSATIRKIYPAFMLGSSVGNFSDGKMGRFFNHTLVLLPDGCGTLLRAFYCILEPRSGNHCPAGNSYTSFATYHTPATDCSDGNYNRNASLNSFKEYFNLRNCTFMYTYNITEDEILEWFGITQTAQGVHLFSSRYVDLYGGNMFQFATLPVYDTIKYYSIIPHSIRSIQSDRKAWAAFYVYKLQPLTFLLDFSVDGYIRRAIDCGFNDLSQLHCSYESFDVESGVYSVSSFEAKPSGSVVEQAEGVECDFSPLLSGTPPQVYNFKRLVFTNCNYNLTKLLSLFSVNDFTCSQISPAAIASNCYSSLILDYFSYPLSMKSDLSVSSAGPISQFNYKQSFSNPTCLILATVPHNLTTITKPLKYSYINKCSRFLSDDRTEVPQLVNANQYSPCVSIVPSTVWEDGDYYRKQLSPLEGGGWLVASGSTVAMTEQLQMGFGITVQYGTDTNSVCPKLEFANDTKIASQLGNCVEYSLYGVSGRGVFQNCTAVGVRQQRFVYDAYQNLVGYYSDDGNYYCLRACVSVPVSVIYDKETKTHATLFGSVACEHISSTMSQYSRSTRSMLKRRDSTYGPLQTPVGCVLGLVNSSLFVEDCKLPLGQSLCALPDTPSTLTPRSVRSVPGEMRLASIAFNHPIQVDQLNSSYFKLSIPTNFSFGVTQEYIQTTIQKVTVDCKQYVCNGFQKCEQLLREYGQFCSKINQALHGANLRQDDSVRNLFASVKSSQSSPIIPGFGGDFNLTLLEPVSISTGSRSARSAIEDLLFDKVTIADPGYMQGYDDCMQQGPASARDLICAQYVAGYKVLPPLMDVNMEAAYTSSLLGSIAGVGWTAGLSSFAAIPFAQSIFYRLNGVGITQQVLSENQKLIANKFNQALGAMQTGFTTTNEAFHKVQDAVNNNAQALSKLASELSNTFGAISASIGDIIQRLDVLEQDAQIDRLINGRLTTLNAFVAQQLVRSESAALSAQLAKDKVNECVKAQSKRSGFCGQGTHIVSFVVNAPNGLYFMHVGYYPSNHIEVVSAYGLCDAANPTNCIAPVNGYFIKTNNTRIVDEWSYTGSSFYAPEPITSLNTKYVAPQVTYQNISTNLPPPLLGNSTGIDFQDELDEFFKNVSTSIPNFGSLTQINTTLLDLTYEMLSLQQVVKALNESYIDLKELGNYTYYNKWPWYIWLGFIAGLVALALCVFFILCCTGCGTNCMGKLKCNRCCDRYEEYDLEPHKVHVH
notes: also called MERS-CoV spike protein
Turning to B1, the binding result is listed as “no binding”.
